Reference: publication PMC10344781

T1: single-chain mouse Trp2/H2-K^b (scpMHC), biotinylated (mouse | not stated)
T1 chain 1: SVYDFFVWL
T1 chain 2: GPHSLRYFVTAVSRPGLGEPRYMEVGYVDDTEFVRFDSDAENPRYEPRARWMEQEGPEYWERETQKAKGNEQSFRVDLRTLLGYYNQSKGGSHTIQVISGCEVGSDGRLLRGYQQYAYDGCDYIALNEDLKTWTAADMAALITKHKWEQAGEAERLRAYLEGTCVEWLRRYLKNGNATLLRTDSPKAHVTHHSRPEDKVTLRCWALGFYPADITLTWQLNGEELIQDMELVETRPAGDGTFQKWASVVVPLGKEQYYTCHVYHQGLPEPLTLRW
T1 chain 3: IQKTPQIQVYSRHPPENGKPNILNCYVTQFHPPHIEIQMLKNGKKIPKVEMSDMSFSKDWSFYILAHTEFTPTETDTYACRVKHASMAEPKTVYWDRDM

B1: mIgG2a clone 13 (wild-type mIgG2a) (protein)
chain 1: EVLLQQSGPELVKPGASVKIPCKASGYTFTDYYMDWVKQSHGKSLEWIGLINPNNGGTVYNQKFKGKATLTVDKSSSAAYMEVRSLTSEDTAVYYCARKPYTGHPAWFAYWGQGTLVTVSA
chain 2: DIQVTQSSSSFSVSLGDRVTITCKASEDIYNRLAWYQQKPGNAPRLLISGATSLETGVPDRFSGSGSRKDYTLIITSLQTEDVATYYCQQYYAFPLTFGAGTKLELK
B2: purified scFv13 (Trp2/H2-K^b TCRm scFv clone 13) (protein)
chain 1: B1 chain 1
chain 2: B1 chain 2

Molecular target: T1, single-chain mouse Trp2/H2-K^b …
Assay: SPR
Details: modification not given, biotin on the biotinylation tag (BirA)

Binder	Kd	koff	Kd (scFv)	koff (scFv)
B1	2.5 nM	0.00143 s⁻¹		
B2			8.6 nM	0.00121 s⁻¹
